Data: publication PMC3351151 (Nucleic Acids Research, 2012)

Biological target: the molecule itself
Experiment: crystal structure

B1: His-HypR (His-tagged HypR, wild type), oxidized by diamide or NaOCl (natural protein, B. subtilis, UniProt P37486 1-125, looked up)
chain: MSEKKNIYPNKEGCPVEFTLDVIGGKWKGILFYHMIDGKKRFNEFRRICPSITQRMLTLQLRELEADGIVHREVYHQVPPKVEYSLTEFGRTLEPIVLQMKEWGESNRDVLESYRSNGLVKDQQK
modifications: Cys14-Cys49' intersubunit disulphide after oxidation with diamide or NaOCl
  stoichiometry N: 2
